Reference: patent publication US20250177557A1, “METHODS OF PRODUCING MICROBUBBLE DRUG CONJUGATES, VIRAL GENE THERAPY MICROBUBBLE CONJUGATES AND TARGETED MICROBUBBLES” (priority 2022, published 2025)

Tested on: human SHSY-5Y cells
Assay: Neuroprotection of differentiated SHSY-5Y cells against parkinsonian neurotoxins (CFDA cell viability)
Format: cell-based
Settings: pre-treatment, rhGDNF 50 ng/ml, CDNF-MDCs 25-250 ng/ml
Experimental: Neuroprotection was tested in the well-established neuronal model of human SHSY-5Y cells (Lopes, F. M.,. et al. (2010) Brain Res. 1337, 85-94) treated with parkinsonian neurotoxins. Human SHSY-5Y cells were grown in 24 well dishes and differentiated into neuron-like cells by treatment with 10 μM retinoic acid (RA) for 7 days (FIG. 8A).
Cell viability was quantified by the CFDA assay as described previously (Sandhu, J. K., et al. (2009) Neurobiol. Dis. 33, 405-414.).
Recombinant human GDNF at 50 ng/ml was used as a positive control.

B1: rhGDNF: Recombinant human GDNF, positive control (protein, UniProt P39905 78-211, looked up)
Glial cell line-derived …: SPDKQMAVLPRRERNRQAAAANPENSRGKGRRGQRGKNRGCVLTAIHLNVTDLGLGYETKEELIFRYCSGSCDAAETTYDKILKNLSRNRRLVSDKVGQACCRPIAFDDDLSFLDDNLVYHILRKHSAKRCGCI
1.0 μM thapsigargin ~16 h
  Neuroprotection against thapsigargin (cell viability): protected from cell death
1.0 mM MPP+ ~16 h
  Neuroprotection against MPP+ (cell viability): protected from cell death
